B1: PgAck (PGN_1178) (Porphyromonas gingivalis ATCC 33277) (protein)
chain: MKVLVLNCGSSSVKYKLLEMPKGDVLAQGGVEKLGLPGSFLKLTMPNGEKVVLEKDMPEHTIAVEFILSVLKDDKYGCIKSYEEIDAVGHRLVHGGEKFSNSVEITPEVIAKVEECIPLAPLHNPANLKGVVAIEKLLPGIRQVGVFDTAFFQTMPEHVYRYALPYDMCNKHGVRRYGFHGTSHRYVSARACEILGLDYDKTRIITAHIGNGASIAAIKNGKALDVSLGMTPVEGLMMGTRSGDVDPGVLTFLMEAEGLQAAGISELINKKSGVLGVSGVSSDLREIEDAIKNGNERATLAMTMYDYRIKKYVGAYAAAMGGVDVLVFTGGVGENQYTTREKVCTDMEFMGIVFDSKVNEGMRGKEMVISKPESKVTVIVVPTDEEYMIASDTMTILK
notes: full length (398 residues), E. coli BL21(DE3), pET28a, N-terminal His6 tag cut off by thrombin; homodimer (108 kDa by gel filtration); EC 2.7.2.1
B2: PgPta (PGN_1179) (Porphyromonas gingivalis ATCC 33277) (protein)
chain: MDLIQDVIRRAQENKQRIVLPEGLEPRTLEAADRLMADKVVNIILIGNVDSVKAKVAELGLKNLDEAVIIDPNNHPKKQQYTDLLLQIRQKKGLTPEKAAELVENPLYLGCLIVKSGDADGLIAGAQNTTGDVLRPALQVIKTAPGMTSVSGTFLLFTKAKEYGKDGLLLVADCAVIPNPTADELAQIAVATARTAKAIADIEPRVAMLSFSTKGSAKHEMTDKVVEATRMAQEMAPDLLIDGEMQADAALVERVAALKAPGSNVAGKANVLVFPTLEVGNIAYKLVERLGHAEAVGPILQGMAAPVNDLSRGCSVEDIYRMVAITANQAIAAKEQ
notes: full length (domains span residues 1-336), E. coli BL21(DE3), pGEX-6P-1, GST tag cut off by PreScission protease; EC 2.3.1.8

How the values were obtained:
Format in all cases: biochemical, Porphyromonas gingivalis
[1] = substrate: CC(=O)OP(=O)(O)O; assay: ATP formation coupled to hexokinase / glucose-6-phosphate dehydrogenase (NADPH, A340), secondary plots; details: co-substrate ADP (0.267-2.67 mM, extrapolated), 50 mM Tris/HCl pH 8.0, 1.3 mM MgCl2 (methods also mention MnCl2), 37°C
Description: (§1) ATP formation coupled to hexokinase / glucose-6-phosphate dehydrogenase (NADPH, A340), secondary plots on PgAck (PGN_1178)

[2] = substrate: Nc1ncnc2c1ncn2[C@@H]1O[C@H](COP(=O)(O)OP(=O)(O)O)[C@@H](O)[C@H]1O; assay: as above; details: co-substrate AcP (0.0667-0.667 mM, extrapolated), 50 mM Tris/HCl pH 8.0, 1.3 mM MgCl2 (methods also mention MnCl2), 37°C
Description: as §1

[3] = substrate: CC(=O)SCCNC(=O)CCNC(=O)[C@H](O)C(C)(C)COP(=O)(O)OP(=O)(O)OC[C@H]1O[C@@H](n2cnc3c(N)ncnc32)[C@H](O)[C@@H]1OP(=O)(O)O; assay: acetyl-CoA consumption at A233, Michaelis-Menten fit; details: 100 mM Tris/phosphate pH 9.0 (phosphate co-substrate), 20 mM KCl, 37°C, acetyl-CoA 50-200 µM
Description: acetyl-CoA consumption at A233, Michaelis-Menten fit on PgPta (PGN_1179)

Row | Protein | Km [1] | Vmax [1] | kcat [1] | Km [2] | Vmax [2] | kcat [2] | Km [3] | Vmax [3] | kcat [3]
1 | B1 | 22.2 ± 0.2 µM | 145 µmol/min/mg | 105 ± 1 s⁻¹ | 188 ± 22 µM | 145 µmol/min/mg | 105 ± 1 s⁻¹ |  |  | 
2 | B2 |  |  |  |  |  |  | 63.8 ± 7.5 µM | 2470 ± 105 µmol/min/mg | 1490 ± 63 s⁻¹
